# Measurements taken from article doi:10.1101/2022.07.31.502239, “Structural basis for assembly and lipid-mediated gating of LRRC8A:C volume-regulated anion channels” (bioRxiv, 2022).
# B1: HVCN1 with C-terminal EGFP and HA-tag (natural protein, UniProt Q96D96 1-273, looked up)
# chain: MATWDEKAVTRRAKVAPAERMSKFLRHFTVVGDDYHAWNINYKKWENEEEEEEEEQPPPTPVSGEEGRAAAPDVAPAPGPAPRAPLDFRGMLRKLFSSHRFQVIIICLVVLDALLVLAELILDLKIIQPDKNNYAAMVFHYMSITILVFFMMEIIFKLFVFRLEFFHHKFEILDAVVVVVSFILDIVLLFQEHQFEALGLLILLRLWRVARIINGIIISVKTRSERQLLRLKQMNVQLAAKIQHLEFSCSEKEQEIERLNKLLRQHGLLGEVN
# notes: HVCN1 (HV1) voltage-gated proton channel; Control for subunit counting; also called HV1-EGFP; HV1; source: LRRC8 knockout HEK293 cells, transfected, GDN detergent extract of membranes; not shown: EGFP, C-terminal, kept; HA, C-terminal, kept
# Target: the molecule itself
# Test: single molecule pulldown with stepwise photobleaching subunit counting; C-terminal EGFP-HA fusion expressed alone in LRRC8 knockout HEK293 cells, GDN extract used directly, immobilised on passivated coverslips with biotinylated anti-HA, TIRF imaging of EGFP bleaching steps
protein,measurement,value
B1,stoichiometry N,2
